Source: PMC7429481, “Signalling, trafficking and glucoregulatory properties of glucagon‐like peptide‐1 receptor agonists exendin‐4 and lixisenatide” (British Journal of Pharmacology, 2020)

Molecular target: human SNAP‐GLP‐1 receptor (HEK293‐SNAP‐GLP‐1 receptor cells) (human) (UniProt P43220)
Experiment: FRET or BRET

Sequence of human SNAP‐GLP‐1 receptor (HEK293‐SNAP‐GLP‐1 receptor cells) (human) (P43220 24-463): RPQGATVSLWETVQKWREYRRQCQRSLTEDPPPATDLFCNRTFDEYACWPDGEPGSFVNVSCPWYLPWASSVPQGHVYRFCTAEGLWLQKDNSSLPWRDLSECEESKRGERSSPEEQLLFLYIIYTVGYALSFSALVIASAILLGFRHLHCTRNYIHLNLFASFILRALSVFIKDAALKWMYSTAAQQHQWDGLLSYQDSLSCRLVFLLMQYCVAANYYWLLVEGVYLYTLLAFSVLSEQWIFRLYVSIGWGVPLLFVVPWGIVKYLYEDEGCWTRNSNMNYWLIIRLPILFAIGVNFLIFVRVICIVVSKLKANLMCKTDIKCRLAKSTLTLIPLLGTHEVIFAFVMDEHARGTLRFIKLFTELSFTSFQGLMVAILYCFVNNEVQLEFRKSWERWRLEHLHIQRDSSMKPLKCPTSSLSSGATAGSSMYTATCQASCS

Q: With “exendin‐4 (from UniProt P26349 48-87) (peptide)” as the substance, how does the log KD read?
A: -9.2

Q: How did the log KD turn out when lixisenatide (peptide) was run?
A: -9
